In PMC10036606 one finds glycocalyx exclusion on the SLB2 (reduction in fluorescence, contact tightness) in regions of CD58 accumulation under J8-GECI cells, against 20% in regions of ICAM-1 accumulation data, which are given here for one substance.

The assay concerns the target CD58 extracellular domain (human) (UniProt P19256).
Chain of UniProt P19256 (P19256 29-215): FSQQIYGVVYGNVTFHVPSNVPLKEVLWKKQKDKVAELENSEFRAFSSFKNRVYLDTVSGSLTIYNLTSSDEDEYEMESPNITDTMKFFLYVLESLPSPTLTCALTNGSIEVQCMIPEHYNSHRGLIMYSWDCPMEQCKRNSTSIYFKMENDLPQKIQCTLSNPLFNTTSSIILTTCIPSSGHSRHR

Consider “CD2 (from UniProt P06729 25-351) (receptor)”, for which the glycocalyx exclusion on the SLB2 (reduction in fluorescence, contact tightness) in regions of CD58 accumulation under J8-GECI cells, against 20% in regions of ICAM-1 accumulation is 45%.
